Assay results published in patent US20200017592A1.

Assays:
[1] = biological target: Macaca fascicularis IL-36R extracellular domain expressed with a C-terminal myc-myc-hexahistidine tag (mfIL-36R-MMH) (Macaca fascicularis); assay: SPR Biacore 4000, mAb captured on anti-hFc, 37C
[2] = biological target: Macaca fascicularis IL-36R extracellular domain expressed with a C-terminal myc-myc-hexahistidine tag (Macaca fascicularis); assay: SPR (Biacore 4000), mAb captured on anti-human Fc, 25°C
[3] = biological target: Macaca fascicularis IL-36R extracellular domain expressed with a C-terminal myc-myc-hexahistidine tag (Macaca fascicularis); assay: SPR Biacore T200, mAb captured by anti-hFc, 25C, PBS-T pH 6.0
[4] = biological target: Macaca fascicularis IL-36R extracellular domain expressed with a C-terminal myc-myc-hexahistidine tag (Macaca fascicularis); assay: SPR Biacore T200, mAb captured by anti-hFc, 25C, PBS-T pH 7.4
[5] = biological target: Macaca fascicularis IL-36R extracellular domain expressed with a C-terminal myc-myc-hexahistidine tag (Macaca fascicularis); assay: SPR Biacore T200, mAb captured by anti-hFc, 37C, PBS-T pH 6.0
[6] = biological target: Macaca fascicularis IL-36R extracellular domain expressed with a C-terminal myc-myc-hexahistidine tag (Macaca fascicularis); assay: SPR Biacore T200, mAb captured by anti-hFc, 37C, PBS-T pH 7.4

| Binder | 100 nM mfIL-36R-MMH Bound (RU) [1] | 100 nM mfIL-36R-MMH Bound (RU) [2] | 100 nM mfIL-36R-MMH Bound (RU) [3] | 100 nM mfIL-36R-MMH Bound (RU) [4] | 100 nM mfIL-36R-MMH Bound (RU) [5] | 100 nM mfIL-36R-MMH Bound (RU) [6] | Kd [1] | koff [1] | kon [1] | t1/2 [1] | Kd [2] | koff [2] | kon [2] | t½ [2] | koff [3] | t½ [3] | koff [4] | t½ [4] | koff [5] | t½ [5] | further results |
| --- | --- | --- | --- | --- | --- | --- | --- | --- | --- | --- | --- | --- | --- | --- | --- | --- | --- | --- | --- | --- | --- |
| H4H14757P (antibody, human IgG4 S228P, kappa, V domains shown) VH: EVQLVESGGGLVQPGRSLRLSCTASGFTFDDYAMHWVRQAPGKGLEWVSGIRWNGGSIGYVDSVKGRFTISRDNAKKSLHLQMNSLKTEDTALYYCAKDIGDILTGFYGEYGMDVWGQGTTVTVSS VL: DIQMTQSPSSLSASEGDRVTITCRASQSISSYLNWYQQKAGKAPNLLIYAASSLQSGVPSRFSGSGSGTEYTLTISSLQPEDFATYYCQQSYIIPYTFGQGTKLEIKR | 4 RU | 1 RU | 1 RU | 1 RU | -1 RU | 0 RU | – | – | – | – | – | – | – | – | – | – | – | – | – | – | – |
| H4H14758P (antibody, human IgG4 S228P, kappa, V domains shown) VH: EVQLVESGGGLVQPGRSLRLSCAASGFTFDDYAMHWVRQAPGKGLEWVSSVRWNGGIIGYADSVKGRFTISRDNAKNSLYLQMNSLRPEDTALYYCAKDIGDVLTGYYGEYGMDVWGQGTTVTVSS VL: DIQMTQSPSSLSASVGDRVTIACRASQSITTYLNWYQQKPGKAPKLLIYAASSLQSGVPSRFSGSGSGTDFTLTISSLQPEDFATYYCQQSYISPYTFGQGTKLEIKR | -1 RU | -1 RU | 1 RU | 0 RU | 1 RU | 0 RU | – | – | – | – | – | – | – | – | – | – | – | – | – | – | – |
| H4H14728P (antibody, human IgG4 S228P, kappa, V domains shown) VH: QVQLQESGPGLVKPSQTLSLTCTVSGGSISSADYYWSWIRQHPGKGLEWIGSIYYTGSTYYNPSLKSRLTISIDTSENQFSLKLTSLTAADTAVYYCASEEANWGSHFDSWGQGTLVTVSS VL: DIQMTQSPSSLSASVGDRVTITCRASQSIDNFLNWYQQKPGKAPKLLIYAASSLQSGVPSRFSGSGSGTDFTLTISSLQPEDFASYYCQHSHSAHPITFGQGTRLEIKR | 77 RU | 51 RU | 68 RU | 74 RU | 91 RU | 98 RU | 20.7 nM | 0.00134 s⁻¹ | 64800 M⁻¹ s⁻¹ | 9 min | 7.87 nM | 0.000406 s⁻¹ | 51500 M⁻¹ s⁻¹ | 28 min | 0.000616 s⁻¹ | 19 min | 0.000544 s⁻¹ | 21 min | 0.00191 s⁻¹ | 6 min | koff [6]: 0.00139 s⁻¹; t½ [6]: 8 min |
| H4H14731P (antibody, human IgG4 S228P, kappa, V domains shown) VH: QLQLQESGPGLVKPSETLSLTCTVSGGSISSSNYYWGWIRQPPGKRLEWIGSIYYSGSTYYNPSLKTRVTISVDTSKNQFSLKLTSVTAADTAVYYCAREEAAALTHFDFWGQGTLVTVSS VL: DIQMTQSPSSLSASVGDRVTITCRASQSISNYLNWYQQKPGKAPKLLIFAASSLQSGVPSRFSGSGSGTDFTLTISSLQPEDFATYYCQHSHSSHPITFGQGTRLEIKR | 41 RU | 33 RU | 23 RU | 36 RU | 40 RU | 43 RU | 48.2 nM | 0.00322 s⁻¹ | 66800 M⁻¹ s⁻¹ | 4 min | 15.9 nM | 0.000951 s⁻¹ | 59800 M⁻¹ s⁻¹ | 12 min | 0.00152 s⁻¹ | 8 min | 0.00137 s⁻¹ | 8 min | 0.00538 s⁻¹ | 2 min | koff [6]: 0.00361 s⁻¹; t½ [6]: 3 min |
